Experimental data reported in PMC8131568, “A noncanonical heme oxygenase specific for the degradation of c-type heme” (The Journal of Biological Chemistry, 2021).

Biological target: the molecule itself
Experiment: crystal structure; Pden_1323 alone at 12 mg/ml; sitting-drop vapor diffusion; 14% glycerol, 18 to 25% PEG 4000, 0.3 M sodium acetate, 0.1 M Tris pH 8.8

B1: Pden_1323 (enzyme, Paracoccus denitrificans PD1222)
chain: MKIDPIRETTDEARALARQLLEAARHASLGTLDPETGVPLVTRIALQTDADGVPLALLAGLAAHARALAVDPRAGLLIAAEAAKGDAMTHARLSILGRAVPAEPDENRRARWLERDPKAKVYLDLPDFRFWRIEPVSGLLNAGFGQAFKLTASDMLKPPAE
notes: Pden_1323, product of the pden_1323 gene of Paracoccus denitrificans PD1222 (opp gene cluster), codon-optimized and cloned NdeI/XhoI into pET-28b(+); HugZ homolog; also called c-type heme oxygenase; CHO; source: Superdex 200 for crystallography; not shown: His-tag, N-terminal, cleaved
- binding result: binds
